Tests used:
[1] = target: HLA-A*3101 (A31) single antigen on beads (human); assay: Luminex, iBead vs regular bead, IVIg 1:8
[2] = target: HLA-A*3001 (A30) single antigen on beads (human); assay: Luminex, iBead vs regular bead, IVIg 1:8
[3] = target: HLA-A*3601 (A36) single antigen on beads (human); assay: Luminex, iBead vs regular bead, IVIg 1:8
[4] = target: HLA-A*6601 (A66) single antigen on beads (human); assay: Luminex, iBead vs regular bead, IVIg 1:8
[5] = target: HLA-A*6801 (A68) single antigen on beads (human); assay: Luminex, iBead vs regular bead, IVIg 1:8
[6] = target: HLA-A*2902 (A29) single antigen on beads (human); assay: Luminex, iBead vs regular bead, IVIg 1:8
[7] = target: HLA-A*3301 (A33) single antigen on beads (human); assay: Luminex, iBead vs regular bead, IVIg 1:8
[8] = target: HLA-A*3402 (A34) single antigen on beads (human); assay: Luminex, iBead vs regular bead, IVIg 1:8
HLA-B*1502 (B75) (human) = assay: Luminex iBeads (#6), IVIg diluted 1:8
HLA-B*1801 (B18) (human) = assay: Luminex iBeads (#6), IVIg diluted 1:8
HLA-B*1511 (B75) (human) = assay: Luminex iBeads (#6), IVIg diluted 1:8
HLA-B*1516 (B63) (human) = assay: Luminex iBeads (#6), IVIg diluted 1:8
HLA-B*1503 (B72) (human) = assay: Luminex iBeads (#6), IVIg diluted 1:8
HLA-B*1501 (B62) (human) = assay: Luminex iBeads (#6), IVIg diluted 1:8
HLA-B*0801 (B8) (human) = assay: Luminex iBeads (#6), IVIg diluted 1:8
HLA-B*1302 (B13) (human) = assay: Luminex iBeads (#6), IVIg diluted 1:8
HLA-B*1512 (B76) (human) = assay: Luminex iBeads (#6), IVIg diluted 1:8
HLA-B*0702 (B7) (human) = assay: Luminex iBeads (#6), IVIg diluted 1:8
HLA-B*1510 (B71) (human) = assay: Luminex iBeads (#6), IVIg diluted 1:8
HLA-B*1301 (B13) (human) = assay: Luminex iBeads (#6), IVIg diluted 1:8
HLA-B*1402 (B65) (human) = assay: Luminex iBeads (#6), IVIg diluted 1:8
[9] = target: HLA-A*3201 (A32) single antigen on beads (human); assay: Luminex single-antigen regular beads (#7), IVIg 1:8
[10] = target: HLA-A*3101 (A31) single antigen on beads (human); assay: as above
[11] = target: HLA-A*3002 (A30) single antigen on beads (human); assay: as above
[12] = target: HLA-A*3001 (A30) single antigen on beads (human); assay: as above
[13] = target: HLA-A*3303 (A33) single antigen on beads (human); assay: as above
[14] = target: HLA-A*6602 (A66) single antigen on beads (human); assay: as above
[15] = target: HLA-A*3601 (A36) single antigen on beads (human); assay: as above
[16] = target: HLA-A*6601 (A66) single antigen on beads (human); assay: as above
[17] = target: HLA-A*6801 (A68) single antigen on beads (human); assay: as above
[18] = target: HLA-A*2902 (A29) single antigen on beads (human); assay: as above
[19] = target: HLA-A*3301 (A33) single antigen on beads (human); assay: as above
[20] = target: HLA-A*3402 (A34) single antigen on beads (human); assay: as above
[21] = target: HLA-A*3401 (A34) single antigen on beads (human); assay: as above
[22] = target: HLA-A*6901 (A69) single antigen on Luminex beads (human); assay: Luminex single antigen bead assay, regular beads (#7), IVIg 1:8
[23] = target: HLA-A*8001 (A80) single antigen on Luminex beads (human); assay: as above
[24] = target: HLA-A*7401 (A74) single antigen on Luminex beads (human); assay: as above
[25] = target: HLA-A*6901 (A69) single antigen on Luminex beads (human); assay: Luminex single antigen bead assay, iBeads (#6), IVIg 1:8
[26] = target: HLA-A*6802 (A68) single antigen on Luminex beads (human); assay: as above
[27] = target: HLA-A*8001 (A80) single antigen on Luminex beads (human); assay: as above
[28] = target: HLA-A*3303 (A33) single antigen on beads (human); assay: Luminex, iBead vs regular bead, IVIg 1:8
[29] = target: HLA-A*3401 (A34) single antigen on beads (human); assay: Luminex, iBead vs regular bead, IVIg 1:8
[30] = target: Serum albumin on negative control beads (HSA/BSA) (human or bovine); assay: Luminex iBeads (#6), IVIg diluted 1:8
HLA-B*1513 (B77) (human) = assay: Luminex iBeads (#6), IVIg diluted 1:8

Substance	Difference % (iBead MFI vs regular bead MFI) [1]	Difference % (iBead MFI vs regular bead MFI) [2]	Difference % (iBead MFI vs regular bead MFI) [4]	Difference % (iBead MFI vs regular bead MFI) [6]	Difference % (iBead MFI vs regular bead MFI) [7]	MFI (HLA-B*1801 (B18) (human))	MFI (HLA-B*1511 (B75) (human))	MFI (HLA-B*1516 (B63) (human))	MFI (HLA-B*1503 (B72) (human))	MFI (HLA-B*1501 (B62) (human))	MFI (HLA-B*0801 (B8) (human))	MFI (HLA-B*1302 (B13) (human))	MFI (HLA-B*1512 (B76) (human))	MFI (HLA-B*1510 (B71) (human))	MFI (HLA-B*1301 (B13) (human))	MFI (HLA-B*1402 (B65) (human))	MFI [9]	MFI [10]	MFI [11]	MFI [13]	also measured
IVIg Octagam (Octapharma, Lachen, Switzerland) (antibody)	-100%	-45%	-40%	44%	-9%	0 MFI	1090 MFI	880 MFI	0 MFI	0 MFI	114 MFI	0 MFI	1380 MFI	0 MFI	52 MFI	0 MFI	738 MFI	366 MFI	533 MFI	542 MFI	Difference % (iBead MFI vs regular bead MFI) [3]: -26%; Difference % (iBead MFI vs regular bead MFI) [5]: 0%; Difference % (iBead MFI vs regular bead MFI) [8]: 0%; MFI (HLA-B*1502 (B75) (human)): 0 MFI; MFI (HLA-B*0702 (B7) (human)): 0 MFI; MFI [12]: 928 MFI; MFI [14]: 3650 MFI; MFI [15]: 778 MFI; MFI [16]: 1700 MFI; MFI [17]: 0 MFI; MFI [18]: 1580 MFI; MFI [19]: 1490 MFI; MFI [20]: 0 MFI; MFI [21]: 2880 MFI; MFI [22]: 1720 MFI; MFI [23]: 2290 MFI; MFI [24]: 201 MFI; MFI [25]: 814 MFI; MFI [26]: 489 MFI; MFI [27]: 845 MFI
IVIg Gamunex-C Lot NKLG1 (antibody)	1960%	112%	722%	243%	163%	1140 MFI	3380 MFI	2400 MFI	507 MFI	749 MFI	1510 MFI	1710 MFI	2810 MFI	1450 MFI	3560 MFI	929 MFI	875 MFI	166 MFI	896 MFI	476 MFI	Difference % (iBead MFI vs regular bead MFI) [28]: 599%; Difference % (iBead MFI vs regular bead MFI) [29]: 47%; MFI [30]: 7150 MFI; MFI (HLA-B*1513 (B77) (human)): 2350 MFI; MFI [15]: 916 MFI; MFI [16]: 648 MFI; MFI [17]: 0 MFI; MFI [18]: 1750 MFI; MFI [19]: 1690 MFI; MFI [20]: 0 MFI; MFI [21]: 3540 MFI; MFI [22]: 2810 MFI; MFI [23]: 3190 MFI; MFI [24]: 666 MFI; MFI [25]: 6240 MFI; MFI [26]: 4660 MFI; MFI [27]: 3970 MFI
IVIg GamaSTAN S/D (Talecris Biotherapeutics, USA) (antibody)	189%	-32%	86%	348%	68%	0 MFI	2380 MFI	3280 MFI	0 MFI	394 MFI	324 MFI	1200 MFI	5970 MFI	492 MFI	1840 MFI	0 MFI	856 MFI	121 MFI	1050 MFI	322 MFI	Difference % (iBead MFI vs regular bead MFI) [28]: 125%; Difference % (iBead MFI vs regular bead MFI) [3]: 145%; Difference % (iBead MFI vs regular bead MFI) [5]: 230%; Difference % (iBead MFI vs regular bead MFI) [8]: 76%; Difference % (iBead MFI vs regular bead MFI) [29]: 42%; MFI (HLA-B*1502 (B75) (human)): 709 MFI; MFI [30]: 5030 MFI; MFI (HLA-B*0702 (B7) (human)): 2010 MFI; MFI (HLA-B*1513 (B77) (human)): 904 MFI; MFI [12]: 924 MFI; MFI [14]: 2360 MFI; MFI [15]: 564 MFI; MFI [16]: 1410 MFI; MFI [17]: 192 MFI; MFI [18]: 991 MFI; MFI [19]: 1120 MFI; MFI [20]: 684 MFI; MFI [21]: 3040 MFI

From patent US10800847
